In US20050048527, “Endonuclease-substrate complexes” (Third Wave Technologies, Inc., published 2005) one finds cleavage rate data, which are given here for two molecules.

Holding throughout (experiment): cleavage_in_vitro; rate vs Pfu FEN1
Data set [1] deals with T1, Pho4M FEN1 (Pyrococcus horikoshii, UniProt O50123 SEQ:1-343).
T1 chain: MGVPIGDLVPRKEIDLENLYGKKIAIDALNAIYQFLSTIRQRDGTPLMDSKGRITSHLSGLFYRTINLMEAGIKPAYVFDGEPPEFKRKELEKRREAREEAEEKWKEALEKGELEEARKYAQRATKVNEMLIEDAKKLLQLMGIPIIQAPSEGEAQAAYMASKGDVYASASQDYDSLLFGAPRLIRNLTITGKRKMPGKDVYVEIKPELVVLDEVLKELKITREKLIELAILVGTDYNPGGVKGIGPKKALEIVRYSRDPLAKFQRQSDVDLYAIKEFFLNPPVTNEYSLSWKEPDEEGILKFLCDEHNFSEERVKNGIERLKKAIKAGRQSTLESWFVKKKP
How it is done: (§1) For the evaluation of chimeric enzymes, standard tests were performed to measure the performance and specificity of the enzymes. […] 10 μl reactions are run at 59 C for between 5 to 60 minutes depending on the enzyme. Reactions are stopped by the addition of 10 μl of 95% formamide, 0.02% methyl violet. 1 μl of the mixture is run on a denaturing 20% acrylamide gel and electrophoresed for 15 minutes or until good separation is achieved between cleaved and uncleaved probe. The gels are scanned using an FMBIO fluorescent gel scanner and the bands are quantified with FMBIOAnalysis software. Cleavage rates are determined from the percent probe cleaved. Cleavage rate for the INVADER substrate is defined as the number of probe molecules cleaved per target molecule per minute. In Table 5, below, the cleavage rates for the mutant enzymes are compared to the cleavage rates for unmodified Pfu FEN1 enzyme on the INVADER assay and X-structure substrates.
(§2) The X-structure substrate is used to determine the amount of background cleavage an enzyme will carry out in an INVADER reaction. It mimics the structure created by uncut primary probe and secondary FRET cassette in the INVADER squared reaction. […] 10 μl reactions are run at 59 C for between 3 to 30 minutes depending on the enzyme. Reactions are stopped by the addition of 10 μl of 95% formamide, 0.02% methyl violet. 1 μl of the mixture is run on a denaturing 20% acrylamide gel and electophoresed for 15 minutes or until good separation is achieved between cleaved and uncleaved probe. The gels are scanned using an FMBIO fluorescent gel scanner and the bands are quantified with FMBIOAnalysis software. Cleavage rates are determined from the percent probe cleaved.

Data set [2] concerns the target T2, Pfu Y33F FEN1 (Pyrococcus furiosus, UniProt O93634 SEQ:1-340, Y33F).
T2 sequence: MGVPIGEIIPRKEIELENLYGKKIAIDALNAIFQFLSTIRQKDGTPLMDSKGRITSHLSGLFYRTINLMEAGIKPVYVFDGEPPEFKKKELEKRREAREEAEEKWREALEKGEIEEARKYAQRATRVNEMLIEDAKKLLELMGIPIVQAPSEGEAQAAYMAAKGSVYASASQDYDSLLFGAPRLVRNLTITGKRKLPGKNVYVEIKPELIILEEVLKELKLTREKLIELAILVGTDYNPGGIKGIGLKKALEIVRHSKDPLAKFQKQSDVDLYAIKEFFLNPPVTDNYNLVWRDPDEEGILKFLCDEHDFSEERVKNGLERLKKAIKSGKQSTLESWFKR
The following applies: label: 5'-biotin target; 5'-TET probe; hairpin target-INVADER with overlapping probe flap. The procedure:
as §1, §2

Data set [3] deals with T3, Pfu3M FEN1 (Pyrococcus furiosus, UniProt O93634 SEQ:1-340).
T3 chain: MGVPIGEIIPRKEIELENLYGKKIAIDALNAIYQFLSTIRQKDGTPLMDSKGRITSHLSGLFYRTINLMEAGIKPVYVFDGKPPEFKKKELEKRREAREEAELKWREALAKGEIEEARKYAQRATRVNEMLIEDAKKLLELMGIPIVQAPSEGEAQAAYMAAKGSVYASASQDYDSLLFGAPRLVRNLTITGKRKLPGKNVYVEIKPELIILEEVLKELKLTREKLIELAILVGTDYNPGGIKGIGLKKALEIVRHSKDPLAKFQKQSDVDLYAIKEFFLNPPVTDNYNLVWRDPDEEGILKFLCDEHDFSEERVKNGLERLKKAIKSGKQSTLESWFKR
How it is done:
as §1, §2

Data set [4] deals with T4, Mja FEN1 (Methanococcus jannaschii, UniProt Q58839 SEQ:1-326).
T4 sequence: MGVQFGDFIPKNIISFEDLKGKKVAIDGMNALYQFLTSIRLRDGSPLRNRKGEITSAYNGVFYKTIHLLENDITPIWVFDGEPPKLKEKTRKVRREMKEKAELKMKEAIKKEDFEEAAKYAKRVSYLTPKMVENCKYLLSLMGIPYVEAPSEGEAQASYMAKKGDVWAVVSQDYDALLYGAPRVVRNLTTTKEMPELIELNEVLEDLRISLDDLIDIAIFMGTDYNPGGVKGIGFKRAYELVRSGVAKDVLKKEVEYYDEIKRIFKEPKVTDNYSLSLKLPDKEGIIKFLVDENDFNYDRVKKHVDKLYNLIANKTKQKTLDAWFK
How it is done: as §1, §2

Data set [5] addresses T5, Pfu4M FEN1 (Pyrococcus furiosus, UniProt O93634 SEQ:1-340).
T5 chain: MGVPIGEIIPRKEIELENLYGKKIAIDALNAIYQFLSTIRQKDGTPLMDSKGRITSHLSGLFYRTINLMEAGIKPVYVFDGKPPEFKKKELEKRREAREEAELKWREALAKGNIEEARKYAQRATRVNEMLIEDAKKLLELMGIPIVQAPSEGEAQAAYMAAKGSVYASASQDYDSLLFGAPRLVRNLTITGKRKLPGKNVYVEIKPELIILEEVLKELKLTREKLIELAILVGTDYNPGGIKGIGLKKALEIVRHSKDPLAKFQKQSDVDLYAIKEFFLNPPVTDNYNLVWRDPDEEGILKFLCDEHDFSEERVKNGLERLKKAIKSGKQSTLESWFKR
How it is done: as §1, §2

Setting [6] is: label: 5'-biotin target, 5'-TET probe, hairpin target-INVADER with overlapping probe flap.

B1: INVADER substrate 594-12-1/203-91-1 (structured_DNA)
DNA 1: TTTTTCACGGCAGTTGGTGCGCCTCGGAACGAGGCGCACA
DNA 2: TTTTCAACTGCCGTGA
For B1, the cleavage rate in data set [1] (setting [6]) was determined as 1.3; in data set [2], 0.96; in data set [3] (setting [6]), 1.8; in data set [4] (setting [6]), 1.9; in data set [5] (setting [6]), 2.2.

B2: X-structure 203-81-2/203-91-2 (structured_DNA)
DNA 1: TTTTCAACTGCTTAGAGAATCTAAGCAGTTGGTGCGCCTCGTTAA
DNA 2: AACGAGGCGCACATT
modifications: 3'-NH2 on first strand
On to B2, for which the cleavage rate in data set [1] (label: 5'-TET, X-structure) came to 2.2; in data set [3] (label: 5'-TET, X-structure), 4.9; in data set [4] (label: 5'-TET, X-structure), 203; in data set [5] (label: 5'-TET, X-structure) it was 62.
